According to US20190071480A1 (Biogen, published 2019):

How the values were obtained:
[1] = biological target: T1, extracellular domain of activin receptor type IIB (ActRIIBecd), biotinylated (Homo sapiens (Human), UniProt Q13705 27-117, amino-biotinylated with amine-PEG3-Biotin); assay: Mean KD column of Table 5; method not restated (BIAcore as Example 5); species also listed in Table 4
T1 construct: immobilised on a streptavidin-coated sensor chip; also called biotinylated ActRIIBecd; extracellular domain of ActRIIB
T1 sequence: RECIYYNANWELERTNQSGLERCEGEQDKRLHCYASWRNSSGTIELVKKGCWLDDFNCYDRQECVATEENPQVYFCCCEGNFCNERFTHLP
In short: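 Receptor capture: biotin-ActRIIBecd on a streptavidin layer, 50-250 RU, loaded from pH 4.0 acetate. Analyte: polypeptides in pH 4.5 glycine, 1.11-90 nM. Output: subtracted sensograms fitted for rates and affinity.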

[2] = biological target: T1, extracellular domain of activin …; assay: BIAcore SPR as Example 5 (method not restated); SD ±1.65 nM
Description: (§1) Biosensor experiments. In one embodiment, experiments were performed on a BIAcore™ T100/T200 instrument (Pharmacia Biosensor AB) in the multichannel mode (serial flow path involving flow cells 1+2+3+4). Flow rate was 10 μl/min; temperature was 25° C.; and data were recorded at 2.5 points/s. All four segments of a sensor chip CMS were coated with streptavidin (Sigma) to a density of 2000 pg/mm² (2000 resonance units) by the aminocoupling procedure. ActRIIBecd (10 mg) and amine-PEG3-Biotin (10 mg, Pierce, Rockford, Ill.) were dissolved in 200 μl H₂O and 10 mg NaCNBH₃ was added to prepare biotinylated ActRIIBecd. The reaction mixture was heated at 70° C. for 24 h, after that a further 10 mg NaCNBH₃ was added and the reaction was heated at 70° C. for another 24 h. After cooling to room temperature, the mixture was desalted with the spin column (3,000 molecular weight cut off (MWCO)). […] Sensograms were recorded during flow of the analyte (the ActRIIBecd-associated polypeptides (i.e., domains) as previously described) first through flow cell 1 (control) then through flow cell 2 (biotinylated ActRIIBecd). […] The sensograms obtained at 1.11, 3.33, 10, 30, and 90 nM analyte were evaluated for equilibrium binding, association rate, and dissociation rate by using the programs supplied with the instrument (BIA evaluation 2.1; Software Handbook. 1995; Pharmacia Biosensor AB).

[3] = biological target: T1, extracellular domain of activin …; assay: BIAcore SPR as Example 5 (method not restated); SD ±1.12 nM
Description: as §1

[4] = biological target: T1, extracellular domain of activin …; assay: BIAcore SPR as Example 5 (method not restated); SD ±1.03 nM
Description: as §1

[5] = biological target: T1, extracellular domain of activin …; assay: BIAcore SPR as Example 5 (method not restated); SD ±0.96 nM
Description: as §1

[6] = biological target: T1, extracellular domain of activin …; assay: BIAcore SPR, biotinylated ActRIIBecd on chip; SD ±12.79 nM
Description: as §1

[7] = biological target: T1, extracellular domain of activin …; assay: BIAcore SPR as Example 5 (method not restated); SD ±1.32 nM
Description: as §1

[8] = biological target: T1, extracellular domain of activin …; assay: BIAcore SPR as Example 5 (method not restated); SD ±2.71 nM
Description: as §1

[9] = biological target: T1, extracellular domain of activin …; assay: BIAcore SPR as Example 5 (method not restated); SD ±2.08 nM
Description: as §1

[10] = biological target: T1, extracellular domain of activin …; assay: BIAcore SPR as Example 5 (method not restated); SD ±0.75 nM
Description: as §1

[11] = biological target: T1, extracellular domain of activin …; assay: BIAcore SPR as Example 5 (method not restated); SD ±1.60 nM
Description: as §1

[12] = biological target: T1, extracellular domain of activin …; assay: BIAcore SPR as Example 5 (method not restated); SD ±2.35 nM
Description: as §1

[13] = biological target: T1, extracellular domain of activin …; assay: BIAcore SPR as Example 5 (method not restated); SD ±1.05 nM
Description: as §1

[14] = biological target: T1, extracellular domain of activin …; assay: BIAcore SPR as Example 5 (method not restated); SD ±1.38 nM
Description: as §1

[15] = biological target: T1, extracellular domain of activin …; assay: BIAcore SPR as Example 5 (method not restated); SD ±1.13 nM
Description: as §1

[16] = biological target: T1, extracellular domain of activin …; assay: BIAcore SPR as Example 5 (method not restated); SD ±1.76 nM
Description: as §1

[17] = biological target: T1, extracellular domain of activin …; assay: BIAcore SPR as Example 5 (method not restated); SD ±0.67 nM
Description: as §1

B1: SEQ ID NO: 254, cysteine pairs C23-C27^a, C58-C91^b, C59-C93^b (designed binder)
chain: VDFKDVGWNDHAVAPPGYHAFYCHGECPFPLADHLNSDNHAIVQTKVNSVNSKDPKACCVPTELSAPSPLYLDENEKPVLKNYQDMVVHGCGCR
modifications: disulfides C23-C27 (intra), C58-C91 (inter), C59-C93 (inter)
notes: homodimer by intermolecular disulfide
B1 showed a Kd [1] of 18.7 nM and a Kd [2] of 18.7 nM.

B2: SEQ ID NO: 260, cysteine pairs C15-C80^a, C44-C112^a, C48-C114^a, C79-C79^b (designed binder)
chain: AQAKHKQRKRLKSSCKRHPLYVDFSDVGWNDWIVAPPGYHAFYCHGECPFPLADHLNSTNHAIVQTLVNSVNSKIPKACCVPTELSAISMLYLDENEKVVLKNYQDMVVEGCGCR
modifications: disulfides C15-C80 (intra), C44-C112 (intra), C48-C114 (intra), C79-C79 (inter)
notes: as for B1
Binder B2 has a Kd [1] of 6.56 nM and a Kd [3] of 6.56 nM.

B3: SEQ ID NO: 260, cysteine pairs C15-C15^b, C79-C114^a, C80-C112^a, C44-C48^a (designed binder)
chain: AQAKHKQRKRLKSSCKRHPLYVDFSDVGWNDWIVAPPGYHAFYCHGECPFPLADHLNSTNHAIVQTLVNSVNSKIPKACCVPTELSAISMLYLDENEKVVLKNYQDMVVEGCGCR
modifications: disulfides C15-C15 (inter), C79-C114 (intra), C80-C112 (intra), C44-C48 (intra)
notes: as for B1
Work on B3 yielded a Kd [1] of 7.64 nM and a Kd [4] of 7.64 nM.

B4: SEQ ID NO: 260, cysteine pairs C80-C114^b, C79-C112^b, C44-C48^a (designed binder)
chain: AQAKHKQRKRLKSSCKRHPLYVDFSDVGWNDWIVAPPGYHAFYCHGECPFPLADHLNSTNHAIVQTLVNSVNSKIPKACCVPTELSAISMLYLDENEKVVLKNYQDMVVEGCGCR
modifications: disulfides C80-C114 (inter), C79-C112 (inter), C44-C48 (intra)
notes: as for B1
B4 was tested, and the Kd [1] was 6.89 nM and the Kd [5] was 6.89 nM.

In the case of VDFKDVGWNDHAVAPPGYHAFYCHGECPFPLADHLNSDNHAIVQTKVNSV [Clone No. 14 domain (ActRIIBecd-associated polypeptide)], the Kd [6] is reported as 38.3 nM.

B5: SEQ ID NO: 268, cysteine pairs C23-C27^a, C65-C65^b, C79-C112^a, C80-C114^a (designed binder)
chain: VDFSDVGWNDWIVAPPGYHAFYCHGECPFPLADHLNSTNHAIVQTLVNSVAQAKHKQRKRLKSSCKRHPLYNSKIPKACCVPTELSAISMLYLDENEKVVLKNYQDMVVEGCGCR
modifications: disulfides C23-C27 (intra), C65-C65 (inter), C79-C112 (intra), C80-C114 (intra)
notes: as for B1
Binder B5 has a Kd [1] of 7.21 nM and a Kd [7] of 7.21 nM.

B6: SEQ ID NO: 268, cysteine pairs C23-C79^a (designed binder)
chain: VDFSDVGWNDWIVAPPGYHAFYCHGECPFPLADHLNSTNHAIVQTLVNSVAQAKHKQRKRLKSSCKRHPLYNSKIPKACCVPTELSAISMLYLDENEKVVLKNYQDMVVEGCGCR
modifications: disulfides C23-C79 (intra)
For B6, the Kd [1] was 29.6 nM and the Kd [8] was 29.6 nM.

B7: SEQ ID NO: 268, cysteine pairs C23-C27^a, C65-C65^b, C79-C114^a, C80-C112^a (designed binder)
chain: VDFSDVGWNDWIVAPPGYHAFYCHGECPFPLADHLNSTNHAIVQTLVNSVAQAKHKQRKRLKSSCKRHPLYNSKIPKACCVPTELSAISMLYLDENEKVVLKNYQDMVVEGCGCR
modifications: disulfides C23-C27 (intra), C65-C65 (inter), C79-C114 (intra), C80-C112 (intra)
notes: as for B1
Binder B7 has a Kd [1] of 8.74 nM and a Kd [9] of 8.74 nM.

B8: SEQ ID NO: 268, cysteine pairs C23-C27^a, C65-C65^b, C79-C112^b, C80-C114^b (designed binder)
chain: VDFSDVGWNDWIVAPPGYHAFYCHGECPFPLADHLNSTNHAIVQTLVNSVAQAKHKQRKRLKSSCKRHPLYNSKIPKACCVPTELSAISMLYLDENEKVVLKNYQDMVVEGCGCR
modifications: disulfides C23-C27 (intra), C65-C65 (inter), C79-C112 (inter), C80-C114 (inter)
notes: as for B1
With B8 the Kd [10] was 7.96 nM and the Kd [1] was 7.96 nM.

B9: SEQ ID NO: 276, cysteine pairs C67-C71^a, C8-C41^a, C9-C43^a, C109-C109^b (designed binder)
chain: NSKIPKACCVPTELSAISMLYLDENEKVVLKNYQDMVVEGCGCRVDFSDVGWNDWIVAPPGYHAFYCHGECPFPLADHLNSTNHAIVQTLVNSVAQAKHKQRKRLKSSCKRHPLY
modifications: disulfides C67-C71 (intra), C8-C41 (intra), C9-C43 (intra), C109-C109 (inter)
notes: as for B1
With B9 the Kd [1] was 5.71 nM and the Kd [11] was 5.71 nM.

B10: SEQ ID NO: 276, cysteine pairs C8-C9^a (designed binder)
chain: NSKIPKACCVPTELSAISMLYLDENEKVVLKNYQDMVVEGCGCRVDFSDVGWNDWIVAPPGYHAFYCHGECPFPLADHLNSTNHAIVQTLVNSVAQAKHKQRKRLKSSCKRHPLY
modifications: disulfides C8-C9 (intra)
B10 gave a Kd [12] of 27.9 nM and a Kd [1] of 27.9 nM.

B11: SEQ ID NO: 276, cysteine pairs C67-C71^a, C8-C43^a, C9-C41^a, C109-C109^b (designed binder)
chain: NSKIPKACCVPTELSAISMLYLDENEKVVLKNYQDMVVEGCGCRVDFSDVGWNDWIVAPPGYHAFYCHGECPFPLADHLNSTNHAIVQTLVNSVAQAKHKQRKRLKSSCKRHPLY
modifications: disulfides C67-C71 (intra), C8-C43 (intra), C9-C41 (intra), C109-C109 (inter)
notes: as for B1
In the case of B11, the Kd [1] is reported as 7.66 nM and the Kd [13] is reported as 7.66 nM.

B12: SEQ ID NO: 276, cysteine pairs C67-C71^a, C8-C43^b, C9-C41^b, C109-C109^b (designed binder)
chain: NSKIPKACCVPTELSAISMLYLDENEKVVLKNYQDMVVEGCGCRVDFSDVGWNDWIVAPPGYHAFYCHGECPFPLADHLNSTNHAIVQTLVNSVAQAKHKQRKRLKSSCKRHPLY
modifications: disulfides C67-C71 (intra), C8-C43 (inter), C9-C41 (inter), C109-C109 (inter)
notes: as for B1
In the case of B12, the Kd [1] is reported as 6.31 nM and the Kd [14] is reported as 6.31 nM.

B13: SEQ ID NO: 284, cysteine pairs C59-C59^b, C8-C41^a, C9-C43^a, C88-C92^a (designed binder)
chain: NSKIPKACCVPTELSAISMLYLDENEKVVLKNYQDMVVEGCGCRAQAKHKQRKRLKSSCKRHPLYVDFSDVGWNDWIVAPPGYHAFYCHGECPFPLADHLNSTNHAIVQTLVNSV
modifications: disulfides C59-C59 (inter), C8-C41 (intra), C9-C43 (intra), C88-C92 (intra)
notes: as for B1
Binder B13 has a Kd [1] of 4.89 nM and a Kd [15] of 4.89 nM.

B14: SEQ ID NO: 284, cysteine pairs C59-C59^b, C8-C41^b, C9-C43^b, C88-C92^a (designed binder)
chain: NSKIPKACCVPTELSAISMLYLDENEKVVLKNYQDMVVEGCGCRAQAKHKQRKRLKSSCKRHPLYVDFSDVGWNDWIVAPPGYHAFYCHGECPFPLADHLNSTNHAIVQTLVNSV
modifications: disulfides C59-C59 (inter), C8-C41 (inter), C9-C43 (inter), C88-C92 (intra)
notes: as for B1
Binder B14 has a Kd [1] of 5.79 nM and a Kd [16] of 5.79 nM.

B15: SEQ ID NO: 292, cysteine pairs C15-C80^a, C44-C112^a, C48-C114^a, C79-C79^b (designed binder)
chain: GQAKRKGYKRLKSSCKRHPLYVDFKDVGWNDHAVAPPGYHAFYCHGECPFPLADHLNSDNHAIVQTKVNSVNSKDPKACCVPTELSAPSPLYLDENEKPVLKNYQDMVVHGCGCR
modifications: disulfides C15-C80 (intra), C44-C112 (intra), C48-C114 (intra), C79-C79 (inter)
notes: as for B1
B15 showed a Kd [1] of 4.77 nM and a Kd [17] of 4.77 nM.
